Values of other authors, collected in publication PMC8985225.

Molecular target: CaMKII kinase domain (Caenorhabditis elegans) (UniProt O62305)

- Kd: > 100 µM
Substance: CaMKII kinase domain (from UniProt O62305)
